The record followed here is patent publication US20200399330A1, “ANTI-LEUKEMIC, ANTI-HIV, AND SIALIDASE ACTIVITIES OF ROYAL-JELLY PROTEINS” (priority 2018, published 2020).

Data set [1] concerns Jurkat cells. As to the kind of experiment: Fluorescence microscope investigation of apoptotic cells (EB/AO double staining), Jurkat. It counts as cell-based, human. To be noted: 72 h. As to the method:
(§1) Then leukemia cell apoptosis was investigated by ethidium bromide (EB)/acridine orange (AO) double staining (100 μg/mL for each) and then visualized under the fluorescent phase contrast microscope (Olympus, Japan).

Data set [2] concerns murine myeloid (NFS-60) leukemia cells. The data set is described as follows: Anti-leukemic activity, MTT assay and phase-contrast morphology, NFS-60. The class given is cell-based. The note with it: NFS-60, 72 h. As to the method: (§2) Anti-leukemic activity of RJ and its fractions, Both leukemia cells (NFS-60 and Jurkat) were seeded in RPMI containing 10% FBS as 3000 cells/well in 96 well cell culture plate. Then serial concentrations from the safe dose of each of the tested RJ and its fractions was added and incubated for 72 h in a 5% CO2 incubator at 37° C. The cytotoxic effect of RJ and its fractions in comparison with DOX against both leukemia cell lines were investigated using the MTT assay as described above. Then the concentration that inhibits leukemia cell growth by 50% (IG50 value) was determined for the RJ and each of its fractions and used to select the effective fraction (the lowest IG50 value). The morphological changes of untreated and treated leukemia cells were examined using the phase-contrast microscope.

Data set [3] concerns NFS-60 cells. The data set is described as follows: Fluorescence microscope investigation of apoptotic cells (EB/AO double staining), NFS-60. The class given is cell-based, murine. The note with it: NFS-60, 72 h. As to the method:
as §1

The test system of data set [4] is human T lymphocyte (Jurkat) leukemia cells. As to the kind of experiment: Anti-leukemic activity, MTT assay and phase-contrast morphology, Jurkat. It counts as cell-based. The note with it: 72 h. As to the method: as §2
For orientation: Tetrazolium dyes change colour on reduction, which living cells bring about.

In data set [5] the test system is HepG2 cells. As to the kind of experiment: Sialidase activity (release of cellular SA), HepG2. To be noted: 2 h and 72 h incubation. The class given is cell-based. As to the method: (§3) The sialidase catalytic activity of the RJ isolated PFs was evaluated by incubating different concentrations (500, 250, 125, 62.5, 31.25) of each of the RJ-PFs (CPF, PF25, PF30, PF40, PF50, PF60, MRJP2 and MRJP2 isoform X1) with PBMCs or HepG2 cells at 37° C. for 2 h and 72 h. Two controls were included, each PF alone without cells and each cell alone without PF. At the end of the incubation period, the released SA concentration was quantified followed the previously published method.
(§4) Preparation of SA-attached cells, PBMCs were obtained by Ficoll-Hypaque density gradient centrifugation method as described previously. […] Finally, the supernatant was removed and the cells were suspended in 5 ml of RPMI-1640 medium containing 10% FBS and counted using trypan blue stain. […]
(§5) The SA assay, SA concentration was measured by the alkali-Ehrlich method using 0.2 M borate buffer at pH 8.5. After the incubation period (2 h or 72 h), cell culture was centrifuged at 2000 rpm for 15 min and the SA content was quantified in the supernatant. […] The developed violet color was read at 560 nm. The SA concentration (nmol/mL) was calculated from the standard SA calibration curve and used to calculate the sialidase activity of the RJPF as nmol/ml/min (IU). The specific activity (IU/mg protein) was calculated after determination of the protein content (mg/mL) in the supernatant using the Bradford method.

For data set [6], the system named is Jurkat cells. As to the kind of experiment: Cell cycle distribution by flow cytometry, Jurkat. It counts as cell-based, human. To be noted: at IG50, 72 h. As to the method: (§6) Briefly, the untreated and treated leukemia cells were incubated with 5 μg/mL RNase A (Sigma, USA) then mixed with 10 μl of 1 mg/mL PI (Sigma, USA) for flow cytometry analysis at 488 nm using Cell Quist and Mod Fit softwares.

Data set [7] has as its system NFS-60 cells. As to the kind of experiment: Cell cycle distribution by flow cytometry, NFS-60. It counts as cell-based, murine. To be noted: NFS-60, at IG50, 72 h. As to the method:
as §6

The test system of data set [8] is PBMCs. The data set is described as follows: Sialidase activity (release of cellular SA), PBMCs. The class given is cell-based, human. To be noted: 2 h and 72 h incubation. As to the method: as §3, §4, §5
The subject of data set [9] is Jurkat cells. The data set is described as follows: Flow cytometric analysis of apoptosis (annexin V/PI), Jurkat. It counts as cell-based, human. The note with it: at IG50, 72 h. As to the method: (§7) Flow cytometric analysis of apoptosis, RJ, its effective fractions (CPF, PF50, MRJP2, and MRJP2 X1), and DOX at their IG50 was incubated for 72 h with each of the leukemia cell lines. After trypsinization, the untreated and treated cells were incubated with annexin V/propidium iodide (PI) for 15 min. Then cells were fixed and incubated with streptavidin-fluorescein (5 μg/mL) for 15 min. The apoptosis-dependent anti-leukemic effect was determined by quantification of annexin-stained apoptotic cells using the Fluorescein isothiocyanate (FITC) signal detector (FL1) in the flow cytometer (Partec, Germany).
Background: In flow cytometry, cells or beads pass a laser one at a time.

Data set [10] has as its system NFS-60 cells. As to the kind of experiment: Flow cytometric analysis of apoptosis (annexin V/PI), NFS-60. It counts as cell-based, murine. The note with it: NFS-60, at IG50, 72 h. As to the method: as §7

Entries after “also recorded” stand apart in the source; their conditions may differ.

On to `COc1cccc2c1C(=O)c1c(O)c3c(c(O)c1C2=O)C[C@@](O)(C(=O)CO)C[C@@H]3O[C@H]1C[C@H](N)[C@H](O)[C@H](C)O1` [DOX, Doxorubicin, reference compound], for which the “apoptotic cell populations by EB/AO double staining” value in data set [1] and in [3] was “increased the number of the late apoptotic cells” each time. For the same molecule, the “IG50 (concentration that inhibits leukemia cell growth by 50%)” value in data set [2] (MTT) and in [4] (MTT) was “significantly more potent than the tested fractions” throughout.

B1: MRJP2: bound protein purified from PF50 by CM-Sephadex ion-exchange chromatography (protein, UniProt O77061 18-452, looked up)
Major royal jelly protein 2: AIVRENSPRNLEKSLNVIHEWKYFDYDFGSEERRQAAIQSGEYDHTKNYPFDVDQWRDKTFVTILRYDGVPSTLNVISGKTGKGGRLLKPYPDWSFAEFKDCSKIVSAFKIAIDKFDRLWVLDSGLVNRTVPVCAPKLHVFDLKTSNHLKQIEIPHDIAVNATTGKGGLVSLAVQAIDLANTLVYMADHKGDALIVYQNADDSFHRLTSNTFDYDPRYAKMTIDGESFTLKNGICGMALSPVTNNLYYSPLASHGLYYVNTAPFMKSQFGENNVQYQGSEDILNTQSLAKAVSKNGVLFVGLVGNSAVGCWNEHQSLQRQNLEMVAQNDRTLQMIAGMKIKEELPHFVGSNKPVKDEYMLVLSNRMQKIVNDDFNFDDVNFRILGANVKELIRNTHCVNNNQNDNIQNTNNQNDNNQKNNKKNANNQKNNNQNDN
On to B1, for which the “sialidase activity (released SA)” value in [5] and in data set [8] was “proven their sialidase activity” throughout. The “apoptotic cell populations by EB/AO double staining” value in data set [1] and in data set [3] was “increased the number of the late apoptotic cells” in each case. The “cell cycle distribution (G0, G1, S, G2/M)” value in data set [6] and in [7] was “almost completely blocking the cell cycle G0 phase; also recorded: the most effective fraction with the same or higher potency than DOX” in each case. For the same molecule, the “morphological changes under the phase contrast microscope” value in [2] is reported as “hallmarks of the apoptosis, which observed obviously”; in [4], “hallmarks of the apoptosis, which observed obviously”. The “% apoptotic cells (annexin V/PI)” value in data set [9] and in [10] was “inducing apoptosis; also recorded: highest percentage of the apoptotic cell populations” in each case.
